Assay results: the DeepSol protein solubility set

test: soluble on expression in E. coli; label from the status in PepcDB or PDB records

Sequence	soluble on expression in E. coli
AIAETEIHVPVGSPTIRKFQIFVDEHNVTEGAMKLIKELRPGWDPNLIRTKLFTDGTTNKLVGCYVEDCVEDVVLVRVYGNKTELIVDRDNELKSFQVLHANGCAPRLYCTFQNGICYEFMQGRALDTQDVRDPVLLRLIAREMARIHAIHAHNGCIPKPNLWIKMRKYFSLVATEFTEQASNIRIQQEVPSQEVLEQEMMWMKEHLSQLGSPVVLCHNDLLCKNIIHNAKEGHVRFIDYEYSSYNYQAFDIGNHFNEFAGMSEPDYNLYPSREMQLDWLQTYLQAYKLFTKKGEDVSERELETLYVQVNKFALASHFFWGFWALIQAKYSTIEFDFLGYAVLRFNQYFKTKPAVMALEIPK	soluble
YKIDFYRNFLVPLKVGKIKKIILDLRGNGGGMVLDARTFTDRFITKDAIFGYQRFKEDNNPFSYTPWIPCMTKTTGIGIKKEIPIVILLDNNSASMSEISTLMLKSQGKHVTVVGGYSAGATAGLGDSDQFNGGIRGKVSDYLEFYMPLLAMQDATHTVIEGIGIKPDLLVDPLTEDEVREMALSPFTHIDRTLKQAIEVLSNN	not soluble
MKWDEYVDIFDTDVVSKIIILRNLPINEGWIDINELAEELQLNKKSVKKYVELLKDDITYYVVDNDASLAFEKGHGYRLNLASSQAFQKLYTAIFRDSLTYQVMEDLFWGRFNGIVPATAKYHTSDATIRRLLKGFTEILAPLGLVINKSTWKIEGNEAYLRHFAYTIFMDLIRDTWPFDYIQETEVAQTVQKMMAFFNVEVAETVTRRVKYMVAISKVRSAQGAEYRPSAEQETYLEGNKHYQAFIEEMTATTLFLNKNDLTFVYFFLLANDQFYQDEATAQAILAHFDETEAPVYMLTHLVQHFLLEEIHMTPQLEKIRPQIFYYLFATHLFAELYYVQNVKMYNVFWNKIKEKYPVLLAELIQGLNQLYEQTGNELFTNKEFLALRYSSVLALSNDLIHREQKIVLGLKSGLPVLEEERVKLSIENNFRRFYALEVLRYSEASKEEWQNIDLLLVTSLADVETGHPEIFLFSSELTFEQYNRLNQKIVKINEKRTTSL	not soluble
SACSRDTPEAPQSTSATSSAAPSTTSASTTAPSSASASSITQTSKVSSQAEAPTSVPPMLDSKHKNVQRAFEQFGALAPESLFAQFDTCDANGVQNSMACSGHDVGQFQFFKSDAKAASTTQLLTELRSSRVIEDTGRR	not soluble
MGHHHHHHSHMATASPSVFLLMVNGQVESAQFPEYDDLYCKYCFVYGQDWAPTAGLEEGISQITSKSQDVRQALVWNFPIDVTFKSTNPYGWPQIVLSVYGPDVFGNDVVRGYGAVHVPFSPGRHKRTIPMFVPESTSKLQKFTSLCLVASSDLQAAPPTEDK	not soluble
MGSDKIHHHHHHMRTICVFNNKGGVGKTTLLCNLAAYFSIKRGKKVLVVDADPQCNATAYMIKEKVLDKLYASSSSDSATINSLIASLKKSKGYGIPPVLRSDGFNVDIVPGDPKFSLAEDFLAKDWLDAIAGDERGLRTTFFFRNLISWARSDGYDLVFFDMGPSLGAINRTVLLSSDHFILPMSSDIFSLRGLQNIEVALKNWTKGIERGLVSFKEDQGTSFKVESGDALSELGVSFLGYVTQQYTAKTVDGKKQPVSAYEKIIKKIDPLVSKHLILPLNKGQKLNYKLGEIPYFQSLVPMAQTATVPIFALKKADGVVGAHFDKVRQFDSVISGIVDKIEANMNSKGN	not soluble
MTIDTDLDRTPAASSENPVEARRTQARAWFEGLRDRICAEIETLEREAPAELFPGEPATFTYKPWQRKTGAGGGVGGFLSNGRLFEKIGIHTSSANGKLTPEMAKNVPGDGSLDYVSTSISLIMHPRSPRVPTVHMNTRFLSTSQGWFGGGADLTPMLPEQRSQDAEDAVIFHTAMKHACDAHDPAYYDKFKPWADTYFFLPHRGVARGVGGIFFDYLNSGDFDRDFAFTRAVGSALLDVYPKIVRKRMIEPWTDAERAQQLACRGLYVEFNLLYDRGTMFGLQTGGNTETIMSSMPPLVSWSMAGDPLEHHHHHH	not soluble
MSLAEIRIRPLEVSALSRRLCIWADIVDASGVLLNSAPVWFDVSAMGEVWTPSTDAEKGTAVDVHPLKREFIDVAAAGIEPASRREIEGKEFSRRVESGQPITKDVLRAIPEIKNGDIVFVEVRVGTVFLRSRAEAMHDAYIGDRIKLKSVSSGETMLGVVLSAGRVWIGSEGHHHHHH	not soluble
MSQYIYELEMKVRDYECDLQGIVNNANYQHYLEHTRHEFLTSVGVSFAALHEQGVDPVVARINMAFKTPLKSGDEFVSKLYMKKEGIKYVFYQDIFRKSDQKVVVKSTVETVCVVNGRLSNSELFDNVFAPYLK	not soluble
MGSDKIHHHHHHMGIYRTQLPQLDGGVFLTDGGIETTLIFHEGFELPYFAAFELLKTPQGRDALTHYFVTYVKLAGLFDTGFILESPTWRASSDWGALLGYTKETLAQANREAIALLEVIREAHSGRLPVVVSGCIGPRFDGYLPDKSMTAEDARHYHSIQIETLASTSADMICALTLNRVEEAIGIVEAAREAAMPVVISFTLETDGRLPTGQSLGDAVVQVDEATAGYAAYFMINCAHPSHLETVPQDAPWLARVKGFRANASSLSHAELNDATTLDDGDPHQLGQQYASLMSTRLKGLNVLGGCCGTDHRHLEQIAKACIKPR	not soluble
MKVAVLGATGKEGQLLLAEAKRRGMDVTAIVRNASKITDGTPTIEKDVYQLTTEDIQAFDVLISALGFPDVQDFPKSTQHLIEILTNQKTRLFVVGGAGTLYVDPEHTTQLKDTPSFPAEIQPLASAMGEALNLLKEAQNIHWTYISPAAMFDADGPATGHYEVAGEELTTNSQGDSYISYADYAVAMLDEVESNAHPNQRISVYQLEHHHHHH	soluble
MAHHHHHHMKRVNAIESNREEARERQLSVVRERAKHEAEKMAEELERRSGATLDEIGRTLEAKKRESSALQADRESRIWECEHTLEKIRTRKEDEESASERLRQAMQQPGQGLGLRQSATETKEQQLEMVQLDGARGREAVMRERHSIEAVRRTVRKERCRQRRQWIHQIKEMNAKFPEQVRPLAEERKKKYEQATAKEDAAERALAADVKMIEEYLPKPISLEDIPVNPEETDIIRHQFDEVFTQ	not soluble
MSLRIVIAGAGEVGYHLAMSLAPNHDVIIIEKDVSRFERVSELDVVAINGNAANMKVLRDAGVERADVFLAVTGNDEVNLLSGLAAKKVGAKNVIVRVENPEYVDRPIVKEHPLGYDVLICPQLSLAQEAARLIGIPGAIEVVTFSGGKVEMIELQVMEGSKADGKAIADLYLPQNVVIASIYRNGHIEIPRGDTVLRAGDRVAIVSKTEDVEMLKGIFGPPVTRRVTIFGAGTIGSYTAKILAKGMTSVKLIESSMERCEALSGELEGVRIVCGDATDIEFLIEEEIGKSDAVLAATESDEKNLLISLLSKNLGARIAIAKVEKREYVKLFEAVGVDVALNPRSVTYNEVSKLLRTMRIETLAEIEGTAVVEVVVRNTRLVGKALKDLPLPKDAIIGAIVRGNECLIPRGDTTIEYEDRLLVFAKWDEIEKIEEIFREGHHHHHH	soluble
APAILLVDDEPHSLAAMKLALEDDFDVLTAQGAEAAIAILEEEWVQVIICDQRMPGRTGVDFLTEVRERWPETVRIIITGYTDSASMMAAINDAGIHQFLTKPWHPEQLLSSARNAARMFTLARENERLSLEMRLLERP	soluble
MSKLQQILTYLESEKLDVAVVSDPVTINYLTGFYSDPHERQMFLFVLADQEPLLFVPALEVERASSTVSFPVVGYVDSENPWQKIKHALPQLDFKRVAVEFDNLILTKYHGLKTVFETAEFDNLTPRIQRMRLIK	soluble
MPIHSLSLAGFRSIRKLTLELDALNVVVGANGCGKSNLYKSIQLLHAAAEGGLSAALAAEGGAQKAMWAGGTRRGDKARVPKRMILSARLDDYDYELQLGYPEPSCSLFALDPLVKEESLWLAGHGRRPSTLLLERRNQAAFLCGVEGERNSYPASLRAEESLFGQLAEPHRYPELSQVRETLRNWRFYHEFAIWPGSPLRAPQVGIRSPVLAHDGANLAAAFQTIVEIGDHELLHSVLTDAFPDSRFLVDAQQGRFQMLMRRDGLLRPLEAAELSDGTLRFLCLAVALLSPRPPAFMALNEPENSLHPALLPALARLIAEASRHSQLWVTSHSPELAERIRRHRPLKTFQLSLRDGETVLQDDLEHHHHHH	not soluble
QVQLVQSGAEVKKPGSSVKVSCKASGYTFSSNVISWVRQAPGQGLEWMGGVIPIVDIANYAQRFKGRVTITADESTSTTYMELSSLRSEDTAVYYCASTLGLVLDAMDYWGQGTLVTVSSASTKGPSVFPLAPCSRSTSESTAALGCLVKDYFPEPVTVSWNSGALTSGVHTFPAVLQSSGLYSLSSVVTVPSSSLGTKTYTCNVDHKPSNTKVDKRVESKYGPP	soluble
MGSDKIHHHHHHMSNQTLKKISELDVFCLMVFKVIFQTGHANIAAKQLNVSAPKISRCLNMLRATFDDELFYRRQLGLKPTPMAEFLYEPVCQFCEAVLKIEQSISEKSSELASERLRVAVTPSIMASLSLAFSRSNARDAFSQLQFVIWGDDSADQIHNGELDMGVTFDACNEHPLSVEALGCLSGVCLAANEEHAIWSQSEPLTLETICRHPFLCLDGKGFNDKIDPLEVFARQNGADIDSIERVSSRDEWYSHLLTMNSVAFLPCSEAEICGALPGIRVVRLSDEEVGRLHGESMSPQYLLLENPAEYRRYSLEQRELIIQLIKQLLVKC	not soluble
MKDTTRNTYLAVDFGGGSGRVIAGSLLQGKLELEEIHRFTNRQVKLGNHVYWDFPALFEDMKTGLKLAAQKGYHVKGIGIDTWGVDFGLIDKKGNLLGNPVCYRDARTDGMPDKVFQILDAQKHYACTGIQVMPINTLFQLYSMQQNQDVLLEVAQRLLFMPDLFSYYLTGVANNEYCIASTSELLDARQRNWSMDTIRALGLPEHLFGEIILPGTVRGTLKEEIGRETGLGPVDIIAVGSHDTASAVAAVPATEGQVAFLSSGTWSLLGVEVDEPILTEEARLAQFTNEGGVGGHIRFLQNITGLWILQRLMSEWKLRGEEQSYDTILPQAADAEIDTIIPVDDAEFMNPENMETALLNYCRNHSLKVPGNKAEMVKCVLQSLAFKYREAVAQLNRCLPSPIHRLNIIGGGSQNKLLNQLTANALGIPVYAGPVEATAMGNILTQAMAKGEISSLREIREVVSHSVTPQVYYPEK	not soluble
EQELSYFAVFRRVYVQRDEVRQIASIVQRGERDHTFRVGSLIFHTIGQLLPQQMQAFHSPKALFPVGYEASRLYWSTRYANRRCRYLCSIEEKDGRPVFVIRIVEQGHEDLVLSDISPKGVWDKILEPVACVRKKSEMLQLFPAYLKGEDLFGLTVSAVARIAE	not soluble
MNHKVHHHHHHIEGRHMDEYKQVDVGKDGMVATAHPLASEIGADVLKKGGNAIDAAVAIQFALNVTEPMMSGIGGGGFMMVYDGKTKDTTIIDSRERAPAGATPDMFLDENGKAIPFSERVTKGTAVGVPGTLKGLEEALDKWGTRSMKQLITPSIKLAEKGFPIDSVLAEAISDYQEKLSRTAAKDVFLPNGEPLKEGDTLIQKDLAKTFKLIRSKGTDAFYKGKFAKTLSDTVQDFGGSMTEKDLENYDITIDEPIWGDYQGYQIATTPPPSSGGIFLLQMLKILDHFNLSQYDVRSWEKYQLLAETMHLSYADRASYAGDPEFVNVPLKGLLHPDYIKERQQLINLDQVNKKPKAGDPWKYQEGSANYKQVEQPKDKVEGQ	soluble
MMICGVFCMYKERKRMTKKELALEYHKKGYNCTQAVACAFCGEFGVSEEEMYKIAEGFGLGMGMMDTCGALTGLFMLIGMKNSGGVEQAGKTKADTYKKTREYAAKFKEINGSVYCKELKGVETGKILAPCDKCILDAVELAEQFLKEN	not soluble
